Tested on: Escherichia coli TOP10
Test: shrunken log2 fold change of peptide-encoding DNA abundance (4.5 h post-induction vs induction); higher = less antimicrobial activity (less host growth inhibition)
Settings: time post-induction: 4.5 h; library: site-saturation at positions 5, 18, 19, 20
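Note: peptides expressed intracellularly from a pBAD plasmid library in pooled LB shake-flask culture, induced with 0.3% L-arabinose, DNA abundance read by NGS, three biological replicates, DESeq2 with apeglm shrinkage.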

Row | Sequence | shrunken log2 fold change
1 | RRIRDRPPRLPRPRPRPKNIPRP | -0.465
2 | RRIRDRPPRLPRPRPRPKNWPRP | 2.51
3 | RRIRDRPPRLPRPRPRPKPMPRP | 0.135
4 | RRIRDRPPRLPRPRPRPKQAPRP | 0.0366
5 | RRIRDRPPRLPRPRPRPKQFPRP | -0.00831
6 | RRIRDRPPRLPRPRPRPKQIPRP | -0.0135
7 | RRIRDRPPRLPRPRPRPKRIPRP | 0.133
8 | RRIRDRPPRLPRPRPRPKRYPRP | -0.236
9 | RRIRDRPPRLPRPRPRPKSMPRP | -0.0219
10 | RRIRDRPPRLPRPRPRPKTEPRP | -0.0167
11 | RRIRDRPPRLPRPRPRPKTHPRP | 0.0785
12 | RRIRDRPPRLPRPRPRPKTMPRP | -0.0184
13 | RRIRDRPPRLPRPRPRPKTNPRP | -0.0796
14 | RRIRDRPPRLPRPRPRPKWFPRP | -0.0316
15 | RRIRDRPPRLPRPRPRPKWLPRP | 0.223
16 | RRIRDRPPRLPRPRPRPKYDPRP | 0.0612
17 | RRIRDRPPRLPRPRPRPKYIPRP | -0.516
18 | RRIRDRPPRLPRPRPRPLARPRP | 0.479
19 | RRIRDRPPRLPRPRPRPLAVPRP | 0.887
20 | RRIRDRPPRLPRPRPRPLCQPRP | 0.0964
21 | RRIRDRPPRLPRPRPRPLDSPRP | 0.148
22 | RRIRDRPPRLPRPRPRPLEPPRP | 0.239
23 | RRIRDRPPRLPRPRPRPLFGPRP | 0.341
24 | RRIRDRPPRLPRPRPRPLGKPRP | 0.188
25 | RRIRDRPPRLPRPRPRPLHCPRP | -0.145
26 | RRIRDRPPRLPRPRPRPLMCPRP | 0.498
27 | RRIRDRPPRLPRPRPRPLMDPRP | 0.172
28 | RRIRDRPPRLPRPRPRPLMGPRP | 0.0162

Row | Sequence | shrunken log2 fold change
29 | RRIRDRPPRLPRPRPRPLMNPRP | 0.0268
30 | RRIRDRPPRLPRPRPRPLMSPRP | 0.101
31 | RRIRDRPPRLPRPRPRPLNPPRP | -0.478
32 | RRIRDRPPRLPRPRPRPLPFPRP | -0.398
33 | RRIRDRPPRLPRPRPRPLPNPRP | -0.234
34 | RRIRDRPPRLPRPRPRPLPTPRP | 0.358
35 | RRIRDRPPRLPRPRPRPLQLPRP | -0.0775
36 | RRIRDRPPRLPRPRPRPLRQPRP | 0.565
37 | RRIRDRPPRLPRPRPRPLSCPRP | -0.212
38 | RRIRDRPPRLPRPRPRPLSVPRP | -0.0465
39 | RRIRDRPPRLPRPRPRPLTAPRP | 0.48
40 | RRIRDRPPRLPRPRPRPLTDPRP | 0.0638
41 | RRIRDRPPRLPRPRPRPLTIPRP | -0.257
42 | RRIRDRPPRLPRPRPRPLTVPRP | -0.102
43 | RRIRDRPPRLPRPRPRPLVMPRP | 0.0567
44 | RRIRDRPPRLPRPRPRPLWCPRP | -0.15
45 | RRIRDRPPRLPRPRPRPLWNPRP | 0.0619
46 | RRIRDRPPRLPRPRPRPLYAPRP | -0.122
47 | RRIRDRPPRLPRPRPRPLYRPRP | -0.163
48 | RRIRDRPPRLPRPRPRPLYTPRP | -0.181
49 | RRIRDRPPRLPRPRPRPMAGPRP | 0.00396
50 | RRIRDRPPRLPRPRPRPMATPRP | 0.415
51 | RRIRDRPPRLPRPRPRPMHLPRP | -0.339
52 | RRIRDRPPRLPRPRPRPMIPPRP | -0.184
53 | RRIRDRPPRLPRPRPRPMIVPRP | 0.00989
54 | RRIRDRPPRLPRPRPRPMPCPRP | 0.000981
55 | RRIRDRPPRLPRPRPRPMPTPRP | -0.0113

Source: the supplement of paper PMC9112550, “Optimization of the antimicrobial peptide Bac7 by deep mutational scanning” (BMC Biology, 2022)
